Data taken from US20150086555A1.
Several values for one entry are separate records, joined by “and”; a condition that tells them apart may be missing. Equal entries are not always repeated.

Assays:
Conditions in all cases: remark: other sources report otherwise
[1] = target: T1, recombinant soluble homotrimeric HA of A/Anhui/1/05 (H5N1) (Influenza A virus A/Anhui/1/2005(H5N1)); test: HA microarray, BCC supernatant
[2] = target: T2, recombinant soluble homotrimeric HA of A/Wisconsin/67/05 (H3N2) (Influenza A virus A/Wisconsin/67/2005(H3N2)); test: HA microarray, BCC supernatant
[3] = target: recombinant soluble homotrimeric HA of A/northern shoveler/California/HKWF115/07 (H6) (Influenza A virus A/northern shoveler/California/HKWF115/2007(H6N1)); test: HA microarray, BCC supernatant
[4] = target: T3, recombinant soluble homotrimeric HA of A/duck/Yangzhou/02/05 (H8N4) (Influenza A virus A/duck/Yangzhou/02/2005(H8N4)); test: HA microarray, BCC supernatant
[5] = target: recombinant soluble homotrimeric HA of A/Hong Kong/2108/03 (H9N2) (Influenza A virus A/HK/2108/2003(H9N2)); test: trimeric HA microarray, transfection supernatant set 3
[6] = target: T1, recombinant soluble homotrimeric HA of …; test: as above
[7] = target: recombinant soluble homotrimeric HA of A/Indonesia/5/05 (H5N1) (Influenza A virus A/Indonesia/5/2005(H5N1)); test: as above
[8] = target: recombinant soluble homotrimeric HA of A/Egypt/3300-NAMRU3/08 (H5N1) (Influenza A virus A/Egypt/3300-NAMRU3/2008(H5N1)); test: as above
[9] = target: T2, recombinant soluble homotrimeric HA of …; test: as above
[10] = target: recombinant soluble homotrimeric HA of A/South Carolina/1/18 (H1N1) (Influenza A virus A/South Carolina/1/18 (H1N1)); test: as above
[11] = target: recombinant soluble homotrimeric HA of A/California/4/09 (H1N1) (Influenza A virus A/California/04/2009(H1N1)); test: as above
[12] = target: T3, recombinant soluble homotrimeric HA of …; test: as above
[13] = target: recombinant soluble homotrimeric HA of A/Netherlands/219/03 (H7N7) (Influenza A virus A/Netherlands/219/03(H7N7)); test: as above
[14] = target: recombinant homotrimeric HA A/Egypt/3300-NAMRU3/08 H5N1 (Influenza A virus A/Egypt/3300-NAMRU3/2008(H5N1)); test: protein microarray, purified IgG, trimeric HA
[15] = target: recombinant homotrimeric HA A/Netherlands/219/03 H7N7 (Influenza A virus A/Netherlands/219/03(H7N7)); test: protein microarray, purified IgG, trimeric HA
[16] = target: recombinant homotrimeric HA A/Hong Kong/156/97 H5N1 (Influenza A virus A/Hong Kong/156/97 (H5N1)); test: protein microarray, purified IgG, trimeric HA
[17] = target: recombinant homotrimeric HA A/Indonesia/5/05 H5N1 (Influenza A virus A/Indonesia/5/2005(H5N1)); test: protein microarray, purified IgG, trimeric HA
[18] = target: recombinant homotrimeric HA A/northern shoveler/California/HKWF115/07 H6N4 (Influenza A virus A/northern shoveler/California/HKWF115/2007(H6N1)); test: protein microarray, purified IgG, trimeric HA
[19] = target: recombinant homotrimeric HA A/Anhui/1/05 H5N1 (Influenza A virus A/Anhui/1/2005(H5N1)); test: protein microarray, purified IgG, trimeric HA
[20] = target: recombinant homotrimeric HA A/Wisconsin/67/05 H3N2 (Influenza A virus A/Wisconsin/67/2005(H3N2)); test: protein microarray, purified IgG, trimeric HA
[21] = target: recombinant homotrimeric HA A/Japan/305/57 H2N2 (Influenza A virus A/Japan/305/1957(H2N2)); test: protein microarray, purified IgG, trimeric HA
[22] = target: recombinant homotrimeric HA A/duck/Yangzhou/02/05 H8N4 (Influenza A virus A/duck/Yangzhou/02/2005(H8N4)); test: protein microarray, purified IgG, trimeric HA
[23] = target: recombinant homotrimeric HA A/Vietnam/1203/04 H5N1 (Influenza A virus A/VietNam/1203/2004(H5N1)); test: protein microarray, purified IgG, trimeric HA
[24] = target: recombinant homotrimeric HA A/South Carolina/1/18 H1N1 (Influenza A virus A/South Carolina/1/18 (H1N1)); test: protein microarray, purified IgG, trimeric HA
[25] = target: recombinant homotrimeric HA A/swine/Ontario/01911-2/99 H4N6 (Influenza A virus A/Swine/Ontario/01911-2/99 (H4N6)); test: protein microarray, purified IgG, trimeric HA
[26] = target: recombinant homotrimeric HA A/chicken/Vietnam/NCVD-016/08 H5N1 (Influenza A virus A/chicken/Vietnam/NCVD-016/2008(H5N1)); test: protein microarray, purified IgG, trimeric HA
[27] = target: recombinant soluble homotrimeric HA of H1N1 A/California/04/09 (Influenza A virus A/California/04/2009(H1N1)); test: ProteOn biosensor, HA-CA captured on anti-V5 surface, Fab in solution

B1: TCN-531 (5091_H13) (antibody, V domains shown)
VH: EVQLVESGGDLVQPGRSLKLSCTGSGFTFGDYGVTWVRQAPGKGLEWVGFIRTRPWGGTADTAASVKGRFTISRDDSKSLAYLQMNSLKTEDTAVYYCCRDAPPNVEVASMTNWYFDLWGRGTLVTVSS
VL: DIQLTQSPSSLSASVGDRVTITCRASQGILNCLAWYQQKPGKVPNLLMYAASTLQSGVPSRFSGSGFGTDFTLTISSLQPEDVATYYCQTYGGVSTFGGGTKVEIR
- Trimeric HA Binding: RLU [1]: 3610 RLU
- Trimeric HA Binding: RLU [2]: 7090 RLU
- Trimeric HA Binding: RLU [3]: 43900 RLU
- Trimeric HA Binding: RLU [4]: 3120 RLU
- Trimeric HA Binding: RLU [5]: 158 RLU
- Trimeric HA Binding: RLU [6]: 76 RLU
- Trimeric HA Binding: RLU [7]: 54 RLU
- Trimeric HA Binding: RLU [8]: 363 RLU
- Trimeric HA Binding: RLU [9]: 4160 RLU
- Trimeric HA Binding: RLU [10]: 1560 RLU
- Trimeric HA Binding: RLU [11]: 2830 RLU
- Trimeric HA Binding: RLU [12]: 3220 RLU
- Trimeric HA Binding: RLU [13]: 384 RLU
- Trimeric HA Binding: RLU [14]: 2810 RLU
- Trimeric HA Binding: RLU [15]: 170 RLU
- Trimeric HA Binding: RLU [16]: 259 RLU
- Trimeric HA Binding: RLU [17]: 84 RLU
- Trimeric HA Binding: RLU [18]: 45 RLU
- Trimeric HA Binding: RLU [19]: 4960 RLU
- Trimeric HA Binding: RLU [20]: 20600 RLU
- Trimeric HA Binding: RLU [21]: 441 RLU
- Trimeric HA Binding: RLU [22]: 112 RLU
- Trimeric HA Binding: RLU [23]: 488 RLU
- Trimeric HA Binding: RLU [24]: 56 RLU
- Trimeric HA Binding: RLU [25]: 84 RLU
- Trimeric HA Binding: RLU [26]: 124 RLU

B2: Fab fragment of TCN-522 (Fab, V domains shown)
VH: QVQLQQWGAGLLKPSETLSLTCTVSGGSLTDYSWNWIRQPPGKGLEWIGDTLHNGYTNYNPSLRGRVSISIDTSKNQVSLRLTSVTAADTALYYCARGSGGYGGFDYFGKLRTWDFWGQGTLVTVSS
VL: DIQLTQSPSSLSASVGDRVTITCRASQGIRNDLGWYQQKPGNAPKRLIFGASSLQSGVPSRFSGSGSGTEFTLTISSLQPEDFATYYCLQHNSYPYTFGQGTKLEIK
- fold slower on-rate (ka) than the other Fabs [27]: 5 fold and 8 fold
